The target of the test is HLA-DR15 (HLA-DRB1*1501) (Homo sapiens, UniProt P01903+P01911). Kind of test: Competitive ELISA against biotinylated pp65 (pp65bio) for binding to HLA-DR. The settings on record: pp65bio 150 nM, HLA-DR15 150 nM, non-biotinylated competitor 7.8 nM - 1 μM, HLA-DM 150 nM, PBS, 37°C, 18 h, triplicate, ± SD, read-out: IC50 in competition with pp65bio for HLA-DR15.

For “MBP85-97: myelin basic protein peptide 85-97 fused to C-terminus of bacterial thioredoxin through (SGGGG)3S linker with His-tags (PVVHFFKNIVTPR; not fully specified; C-terminal fusion to thioredoxin via (SGGGG)3S linker (left out))”, the IC50 came out at 120 ± 20 nM.
